Assay results taken from patent publication US8748112B2, “Methods of determining cancer cell responsiveness to a notch inhibitory agent” (Trojan Technologies, Ltd., priority 2007, dated 2014).

Columns and labels:
[1] = system: Notch (NICD); experiment: Notch inhibition, Western blot of activated Notch (NICD); format: cell-based, human; conditions: MDA-MB231 cells treated for two hours
Description: To investigate the potential role of ANTP/DN-MAML to inhibit Notch signaling activation the high metastatic mammary epithelial cell line MDA-MB231 cell line was treated with the ANTP/DN-MAML fusion protein for two hours. Total protein was extracted from cells using SDS buffer. Total protein concentrations were determined using the BCA protein assay kit. Total protein ([…]) was diluted in 5× sample buffer ([…] Tris-HCl pH 6.8, 500 mM dithiotheitol, 10% SDS, 0.5% bromophenol blue, 50% glycerol), heated at 100° C. and analyzed by SDS-PAGE. Electrophoresis was carried out in running buffer (25 mM Tris HCl, 250 mM glycine, 0.1% SDS) for 60 minutes or until the bromophenol blue had run out of the gel. Separated proteins were transferred to nitrocellulose membrane in ice cold transfer buffer (39 mM glycine, 48 mM Tris HCl) electrophoretically for 90 minutes at 100V. Western blots were probed with the […] in blocking buffer at 4° C. over night with anti-Mouse IgG peroxidase produced in goat […] (Sigma A9917). Nitrocellulose membranes were washed 4 times for five minutes each in TBS-T buffer. […]

[2] = system: MDA-MB231 cells; experiment: Cellular localization by immunostaining (nuclear transduction); format: cell-based, human; conditions: 50 μM, two hours, serum free media, anti-His immunostaining
Description: To determine the cellular localization of the ANTP/DN-MAML (TR4) fusion protein, immunostaining on human mammary epithelial breast cancer MDA-MB231 cells was carried out. MDA-MB231 cells were cultured to sub-confluence in Dulbecco's modified Eagle's medium containing 10% calf serum at 37° C. The coverslips with cells attached were washed, and incubated with ANTP/DN-MAML purified fusion protein in serum free media for two hours at a concentration of 50 μM. Cells were washed three times and fixed with 4% paraformaldehyde for 15 minutes. After brief washes, the coverslips were incubated with blocking solution and subsequently with anti-His primary and FITC-conjugated secondary antibody.

[3] = Biodistribution by Western blot of organs after intravenous injection; format: in vivo, CD1 nude mice; conditions: 4 mg/kg intravenously via tail vein, 2 hours after injection
Description: To determine whether Antennapedia could be used to deliver the DN-MAML in vivo, CD1 nude mice were injected intravenously via tail vein with 4 mg/kg of the ANTP/DN-MAML fusion protein. The mice were perfused for 5 min with phosphate-buffered saline and sacrificed 2 hours following the injection. The expression of ANTP/DN-MAML in each organ was determined by Western blot analysis. […] As such, the targeted delivery system of the present invention may have wide applications in the administration of therapeutic proteins to the central nervous system.

[4] = system: MDA MB231 xenograft tumor; experiment: Penetration into outer, middle and inner core of xenografted mammary tumors (Western blot, immunohistochemistry); format: in vivo, CD1 Nude mice; conditions: tail vein injection
Description: Purified ANTP/DN-MAML fusion protein was injected into CD1 Nude mice xenografted with MDA MB231 human mammary epithelial breast cancer cells via the tail vein. The mice were perfused for 5 min with phosphate-buffered saline and sacrificed 2 hours following the injection. The tumor was removed and dissected under a stereoscope to separate the outer, middle, and inner core of the tumor. The ANTP/DN-MAML in each core of the tumor was determined by Western blot.
In order to establish the localization of ANTP/DN-MAML within the tumors, immunohistochemistry on the above mammary cancer samples was performed.

[5] = system: Breast cancer xenografts; experiment: In vivo tumor reduction in breast cancer xenografts; design: species or system mice; conditions: 4 mg/kg every two days, n=6 per group, vs PBS control
Description: Breast cancer xenografts were established in mice. The mice were divided into two groups, and injected every two days with either PBS as a control, or with 4 mg/kg ANTP/DN-MAML fusion protein (n=6 per group) (FIG. 4A). Control mice treated with PBS developed rapidly growing tumors. The control mice were euthanized after twenty days. […] (FIG. 4B).

[6] = Immunogenicity in immuno-competent mice by ELISA; format: in vivo; conditions: intravenous 0.2 ml, 2.5 mg/ml without adjuvant, once per day for 5 days; 2.5 mg per week; monitored over 4 months
Description: The immunogenicity of ANTP/DN-MAML was investigated in immuno-competent mice. Animals were immunized intravenously with ANTP/DN-MAML (0.2 ml, 2.5 mg/ml) without adjuvant, once per day for 5 days. Mice were bled once per week over a 4-month period, and the immune response monitored by ELISA. Blood samples were diluted 1:10, 1:100 and 1:1000 in PBS, and the immune response was monitored by ELISA on native ANTP/DN-MAML (coated at 50 μg/ml) and detected using anti-mouse antibodies. […] This dose is equivalent to 100 mg/kg in humans.

[7] = In vivo maximum tolerated dose study; design: species or system mice
Description: ANTP/DN-MAML tail vein administration was started when the mice reached an age of 12 weeks. Mice were continuously monitored for signs of hypoglycemic shock or drug side effects and were sacrificed if body weight loss exceeded 15%. Various dosages were tested starting at 4 mg/kg/day. […] This experiment was terminated by sacrificing the animals three days after injection.

[8] = system: Colo205 tumors; experiment: Colon cancer xenograft model; format: in vivo, female nude mice; conditions: 0.2 ml of 4 mg/ml every other day, Colo205 xenografts
Description: High levels of Notch are expressed in colon cancer cells. ANTP/DN-MAML was administered to female nude mice bearing xenografted Colo205 tumors. Injections of 0.2 ml of 4 mg/ml ANTP/DN-MAML protein were administered to the mice every other day. This dose is equivalent to 2 g of ANTP/DN-MAML fusion protein per patient.

Substance	downregulation of Notch activation (NICD) [1]	cellular localization [2]	detection in brain (blood-brain barrier crossing) [3]	signal in liver, kidney, heart, lung, spleen and brain tissue vs PBS injected mice ([3]; Western blot)	detection in outer, middle and inner core of the tumor ([4]; 2 hours, Western blot, vs PBS control)	localization within the tumors (immunohistochemistry) ([4]; MDA MB231 xenograft)	tumor volume [5]	immune response (ELISA) [6]	side effects at the maximum tolerated dose ([7]; 57 mg/kg/day, tail vein)	maximum tolerated dose ([7]; tail vein administration, mice aged 12 weeks)	colon cancer cell growth in vivo [8]
ANTP: Trojan peptide; 60 amino acid Drosophila antennapedia homeodomain (SEQ ID NO.:4), used alone as control [reference compound]	not in cells treated with ANTP alone	–	–	–	–	–	–	–	–	–	–
ANTP/DN-MAML: 14.18 KDa fusion protein of antennapedia homeodomain, 62 amino acid DN/MAML sequence and pentahistidine tag (SEQ ID NO.:2)	Downregulation of Notch activation occurred	nuclear localization	detected in the brains	significant signal	detected in the outer, middle and inner core of the tumor	Intense ANTP/DN-MAML staining within the nucleus of mammary cancer cells	no increase in tumor volume after thirty-two days	does not raise an immune response	loss of appetite, weight loss and hypoglycemia	57 mg/kg/day	reduced colon cancer cell growth in vivo
